Legend:
Assay in all cases: yeast two-hybrid
[1] = target: T1, serum deprivation response (aa 75-258) (UniProt O95810 75-258)
T1 construct: range 75-258
T1 sequence (looked up): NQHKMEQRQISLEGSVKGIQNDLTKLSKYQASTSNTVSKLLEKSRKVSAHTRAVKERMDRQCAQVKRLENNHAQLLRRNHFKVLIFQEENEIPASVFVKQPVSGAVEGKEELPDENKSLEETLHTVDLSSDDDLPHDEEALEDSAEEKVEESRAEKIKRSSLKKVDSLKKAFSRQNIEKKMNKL

[2] = target: T2, GTPase-activating protein 1 (aa 1392-1657) (UniProt P46940 1392-1657)
T2 construct: range 1392-1657; also called IQGAP1; IQGAP
T2 sequence (looked up): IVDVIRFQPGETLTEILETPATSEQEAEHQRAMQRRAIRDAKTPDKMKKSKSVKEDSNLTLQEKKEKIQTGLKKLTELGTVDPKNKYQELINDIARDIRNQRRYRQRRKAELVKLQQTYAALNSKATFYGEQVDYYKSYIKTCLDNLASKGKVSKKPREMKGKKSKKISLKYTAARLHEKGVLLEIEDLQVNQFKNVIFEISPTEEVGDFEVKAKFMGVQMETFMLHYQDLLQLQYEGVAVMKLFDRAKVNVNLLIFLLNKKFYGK

[3] = target: T3, intersectin 1 (aa 387-611) (UniProt Q15811 387-611)
T3 construct: range 387-611
T3 sequence (looked up): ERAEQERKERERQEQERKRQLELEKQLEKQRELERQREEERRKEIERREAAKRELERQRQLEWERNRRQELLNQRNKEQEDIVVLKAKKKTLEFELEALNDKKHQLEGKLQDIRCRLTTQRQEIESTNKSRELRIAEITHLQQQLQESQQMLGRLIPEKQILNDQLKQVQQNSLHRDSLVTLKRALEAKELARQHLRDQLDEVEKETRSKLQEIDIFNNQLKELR

[4] = target: T4, intersectin 1 (aa 210-633) (UniProt Q15811 210-633)
T4 construct: range 210-633
T4 sequence (looked up): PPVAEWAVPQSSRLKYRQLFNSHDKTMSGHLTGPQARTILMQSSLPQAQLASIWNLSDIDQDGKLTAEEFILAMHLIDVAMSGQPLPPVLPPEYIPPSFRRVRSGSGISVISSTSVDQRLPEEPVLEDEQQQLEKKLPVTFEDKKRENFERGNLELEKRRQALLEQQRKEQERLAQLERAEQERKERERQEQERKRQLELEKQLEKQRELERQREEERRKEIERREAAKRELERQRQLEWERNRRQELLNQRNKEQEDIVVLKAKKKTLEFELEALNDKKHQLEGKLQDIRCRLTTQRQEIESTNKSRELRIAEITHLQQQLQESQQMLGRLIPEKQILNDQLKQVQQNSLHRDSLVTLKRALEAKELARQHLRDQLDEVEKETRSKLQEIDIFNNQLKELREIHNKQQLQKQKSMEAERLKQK

[5] = target: T5, GTPase-activating protein 1 (aa 1419-1657) (UniProt P46940 1419-1657)
T5 construct: range 1419-1657; also called IQGAP1; IQGAP
T5 sequence (looked up): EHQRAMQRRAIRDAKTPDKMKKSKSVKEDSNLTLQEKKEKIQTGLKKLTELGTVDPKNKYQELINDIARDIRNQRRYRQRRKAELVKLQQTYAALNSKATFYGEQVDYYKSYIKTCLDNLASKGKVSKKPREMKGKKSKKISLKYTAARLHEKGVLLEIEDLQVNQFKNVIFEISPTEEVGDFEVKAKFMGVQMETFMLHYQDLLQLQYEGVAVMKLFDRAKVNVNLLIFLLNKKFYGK

[6] = target: T6, hook2 protein (aa 290-555) (UniProt Q96ED9 290-555)
T6 construct: range 290-555
T6 sequence (looked up): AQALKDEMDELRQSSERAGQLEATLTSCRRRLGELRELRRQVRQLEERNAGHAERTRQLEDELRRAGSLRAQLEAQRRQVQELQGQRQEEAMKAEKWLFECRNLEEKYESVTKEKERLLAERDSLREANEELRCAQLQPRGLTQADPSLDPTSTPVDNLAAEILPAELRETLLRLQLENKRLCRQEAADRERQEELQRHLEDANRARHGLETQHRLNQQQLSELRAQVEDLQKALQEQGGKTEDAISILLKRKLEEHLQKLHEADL

[7] = target: T7, hook2 protein (aa 201-559) (UniProt Q96ED9 201-559)
T7 construct: range 201-559
T7 sequence (looked up): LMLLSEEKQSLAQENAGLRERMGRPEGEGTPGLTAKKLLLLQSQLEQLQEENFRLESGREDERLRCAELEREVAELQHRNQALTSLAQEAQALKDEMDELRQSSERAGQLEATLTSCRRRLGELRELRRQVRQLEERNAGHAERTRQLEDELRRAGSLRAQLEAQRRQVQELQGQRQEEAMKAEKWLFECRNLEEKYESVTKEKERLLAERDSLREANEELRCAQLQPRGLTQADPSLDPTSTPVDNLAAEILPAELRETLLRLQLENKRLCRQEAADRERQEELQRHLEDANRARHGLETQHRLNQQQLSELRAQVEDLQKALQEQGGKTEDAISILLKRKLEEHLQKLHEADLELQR

[8] = target: T8, mitotic spindle coiled-coil related protein (aa 668-895) (UniProt Q96R06 668-895)
T8 construct: range 668-895
T8 sequence (looked up): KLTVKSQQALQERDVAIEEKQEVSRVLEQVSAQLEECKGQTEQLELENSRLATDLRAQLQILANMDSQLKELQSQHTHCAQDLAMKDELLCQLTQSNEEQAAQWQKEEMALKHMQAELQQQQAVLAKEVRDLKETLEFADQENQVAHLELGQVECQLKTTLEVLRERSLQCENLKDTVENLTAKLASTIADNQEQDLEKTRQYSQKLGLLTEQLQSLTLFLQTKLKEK

Measured: binding result

B1: Tsg101 (aa 240-391) (other, human, UniProt Q99816 240-390, looked up)
chain: WRMKEEMDRAQAELNALKRTEEDLKKGHQKLEEMVTRLDQEVAEVDKNIELLKKKDEELSSALEKMENQSENNDIDEVIIPTAPLYKQILNLYAEENAIEDTIFYLGEALRRGVIDLDVFLKHVRLLSRKQFQLRALMQKARKTAGLSDLY
notes: range 240-391; also called C-terminal fragment of Tsg101; amino acid residues 240-390
binds: all assays above

— patent publication US7202329 (MYRIAD GENETICS, dated 2007)
